Columns and labels:
[1] = biological target: recombinant F. hepatica cathepsin L1 (Fasciola hepatica)
[2] = biological target: human cathepsin L (human)
[3] = biological target: recombinant F. hepatica cathepsin L2 (Fasciola hepatica)
[4] = biological target: human cathepsin K (human) (UniProt P43235)
[5] = biological target: recombinant F. hepatica cathepsin L1 (Fasciola hepatica); test: enzyme inhibition kinetics (fluorogenic substrate, Morrison tight-binding fit); inhibitor serially diluted (20 to 0.1 nM) against each cysteine protease; 50 mM citrate phosphate buffer pH 5.5, 2 mM DTT, 0.01% Brij L23; 37 °C; substrate at its Km; Ki worked out from the apparent Ki
[6] = biological target: human cathepsin L (human); test: as above
[7] = biological target: recombinant F. hepatica cathepsin L2 (Fasciola hepatica); test: as above
[8] = biological target: human cathepsin K (human) (UniProt P43235); test: as above
[9] = biological target: bovine trypsin (bovine)
[10] = biological target: bovine trypsin (bovine); test: enzyme inhibition kinetics (fluorogenic substrate, Morrison tight-binding fit); inhibitor serially diluted against trypsin (42 nM); 100 mM sodium phosphate buffer pH 7.6, 1 mM HCl, 20 mM Ca, 0.01% Brij L23; substrate Z-Leu-Arg-NHMec

Chain of human cathepsin K (human) (P43235 115-329): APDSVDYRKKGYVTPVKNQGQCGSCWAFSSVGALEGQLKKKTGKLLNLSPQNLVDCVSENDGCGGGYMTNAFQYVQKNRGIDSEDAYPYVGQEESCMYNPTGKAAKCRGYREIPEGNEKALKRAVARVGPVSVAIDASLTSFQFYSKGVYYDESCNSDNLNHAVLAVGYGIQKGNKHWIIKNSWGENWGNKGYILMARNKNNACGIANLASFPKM

| Substance | reduction of protease activity (fluorogenic substrate) by 300 nM rFhKT1 [1] [%] | reduction of protease activity (fluorogenic substrate) by 300 nM rFhKT1 [2] [%] | reduction of protease activity (fluorogenic substrate) by 300 nM rFhKT1 [3] [%] | reduction of protease activity (fluorogenic substrate) by 300 nM rFhKT1 [4] [%] | Ki [5] [nM] | Ki [6] [nM] | Ki [7] [nM] | Ki [8] [nM] | reduction of trypsin activity (fluorogenic substrate) by 300 nM rFhKT1Leu15/Arg15 [9] [%] | Ki [10] [nM] |
| --- | --- | --- | --- | --- | --- | --- | --- | --- | --- | --- |
| recombinant Fasciola hepatica Kunitz-type protease inhibitor FhKT1 (natural protein) | 98.9 | 96.8 | 90.3 | 99.5 | 0.4 | 1.6 | 10 | 5 |  |  |
| recombinant FhKT1Leu15/Arg15 variant (natural protein) |  |  |  |  | 0.7 | 3 | 27 | 10 | 88.9 | 1.5 |
